Reference: patent US20140213513A1 (Sanofi, priority 2012, published 2014)
*1 amine or outer side, *2 acyl side, *3 side chain or, on linkers, in order; H or OH if unused. Where no end group is shown, it is not given here. Side-chain parts run from the residue outwards. [ ]: non-standard residue; d: D form. The star is where a group is joined. γGlu = O=C(O)[C@H](CCC(=O)[*:2])N[*:1]; Palmitoyl = CCCCCCCCCCCCCCCC(=O)*; Aib = CC(C)(N)C(=O)O

T1: human GIP receptor (human, UniProt P48546 22-466)
T1 sequence (looked up): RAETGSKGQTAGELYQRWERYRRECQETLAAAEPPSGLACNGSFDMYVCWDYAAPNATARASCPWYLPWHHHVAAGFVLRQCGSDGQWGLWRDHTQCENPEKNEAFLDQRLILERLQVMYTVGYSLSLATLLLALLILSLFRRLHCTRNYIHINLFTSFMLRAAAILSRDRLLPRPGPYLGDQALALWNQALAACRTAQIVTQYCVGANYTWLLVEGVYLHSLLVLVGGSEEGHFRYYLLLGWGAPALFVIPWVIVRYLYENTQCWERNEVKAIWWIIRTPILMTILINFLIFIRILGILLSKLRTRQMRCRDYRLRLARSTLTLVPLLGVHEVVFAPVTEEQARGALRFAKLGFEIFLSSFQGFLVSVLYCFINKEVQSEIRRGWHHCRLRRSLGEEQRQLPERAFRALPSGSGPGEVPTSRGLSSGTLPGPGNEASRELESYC


How the values were obtained:
Assay in all cases: cell-based or functional assay
human GLP-1 receptor = human GLP-1 receptor (human, UniProt P43220 24-463)
human glucagon receptor = human glucagon receptor (human, UniProt P47871 26-477)
human GIP receptor = molecular target: T1, human GIP receptor

human glucagon receptor, sequence (P47871 26-477): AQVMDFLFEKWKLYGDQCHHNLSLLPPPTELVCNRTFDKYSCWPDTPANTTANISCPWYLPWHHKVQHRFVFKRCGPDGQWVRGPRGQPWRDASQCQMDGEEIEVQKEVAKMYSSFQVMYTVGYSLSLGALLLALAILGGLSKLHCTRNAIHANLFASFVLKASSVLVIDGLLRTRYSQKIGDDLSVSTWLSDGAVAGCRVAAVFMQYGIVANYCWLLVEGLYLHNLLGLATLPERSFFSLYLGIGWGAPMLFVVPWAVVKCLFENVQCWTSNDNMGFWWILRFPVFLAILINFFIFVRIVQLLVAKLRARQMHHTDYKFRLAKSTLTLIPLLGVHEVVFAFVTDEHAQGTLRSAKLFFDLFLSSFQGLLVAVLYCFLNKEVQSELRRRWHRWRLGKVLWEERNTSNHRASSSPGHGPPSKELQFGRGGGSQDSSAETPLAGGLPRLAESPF

Row | Binder | EC50 hGLP-1 R (human GLP-1 receptor) | EC50 hGLUC R (human glucagon receptor) | EC50 hGIP R (human GIP receptor)
1 | Y[Aib]QGTFTSDLSIQK([γGlu-Palmitoyl])EKRLA[Aib]EFIEWLKNTGPSSGAPPPS-NH2 (N-terminus assumed; SMILES CCCCCCCCCCCCCCCC(=O)N[C@@H](CCC(=O)NCCCC[C@H](NC(=O)[C@H](CCC(N)=O)NC(=O)[C@@H](NC(=O)[C@H](CO)NC(=O)[C@H](CC(C)C)NC(=O)[C@H](CC(=O)O)NC(=O)[C@H](CO)NC(=O)[C@@H](NC(=O)[C@H](Cc1ccccc1)NC(=O)[C@@H](NC(=O)CNC(=O)[C@H](CCC(N)=O)NC(=O)C(C)(C)NC(=O)[C@@H](N)Cc1ccc(O)cc1)[C@@H](C)O)[C@@H](C)O)[C@@H](C)CC)C(=O)N[C@@H](CCC(=O)O)C(=O)N[C@@H](CCCCN)C(=O)N[C@@H](CCCNC(=N)N)C(=O)N[C@@H](CC(C)C)C(=O)N[C@@H](C)C(=O)NC(C)(C)C(=O)N[C@@H](CCC(=O)O)C(=O)N[C@@H](Cc1ccccc1)C(=O)N[C@H](C(=O)N[C@@H](CCC(=O)O)C(=O)N[C@@H](Cc1c[nH]c2ccccc12)C(=O)N[C@@H](CC(C)C)C(=O)N[C@@H](CCCCN)C(=O)N[C@@H](CC(N)=O)C(=O)N[C@H](C(=O)NCC(=O)N1CCC[C@H]1C(=O)N[C@@H](CO)C(=O)N[C@@H](CO)C(=O)NCC(=O)N[C@@H](C)C(=O)N1CCC[C@H]1C(=O)N1CCC[C@H]1C(=O)N1CCC[C@H]1C(=O)N[C@@H](CO)C(N)=O)[C@@H](C)O)[C@@H](C)CC)C(=O)O) [exendin-4 peptide analogue SEQ ID NO: 19] | 8.5 pM | 137 pM | 91.5 pM
2 | Y[Aib]EGTFTSDLSIQK([γGlu-Palmitoyl])EKRAA[Aib]EFIEWLKRAGPSSGAPPPS-NH2 (N-terminus assumed; SMILES CCCCCCCCCCCCCCCC(=O)N[C@@H](CCC(=O)NCCCC[C@H](NC(=O)[C@H](CCC(N)=O)NC(=O)[C@@H](NC(=O)[C@H](CO)NC(=O)[C@H](CC(C)C)NC(=O)[C@H](CC(=O)O)NC(=O)[C@H](CO)NC(=O)[C@@H](NC(=O)[C@H](Cc1ccccc1)NC(=O)[C@@H](NC(=O)CNC(=O)[C@H](CCC(=O)O)NC(=O)C(C)(C)NC(=O)[C@@H](N)Cc1ccc(O)cc1)[C@@H](C)O)[C@@H](C)O)[C@@H](C)CC)C(=O)N[C@@H](CCC(=O)O)C(=O)N[C@@H](CCCCN)C(=O)N[C@@H](CCCNC(=N)N)C(=O)N[C@@H](C)C(=O)N[C@@H](C)C(=O)NC(C)(C)C(=O)N[C@@H](CCC(=O)O)C(=O)N[C@@H](Cc1ccccc1)C(=O)N[C@H](C(=O)N[C@@H](CCC(=O)O)C(=O)N[C@@H](Cc1c[nH]c2ccccc12)C(=O)N[C@@H](CC(C)C)C(=O)N[C@@H](CCCCN)C(=O)N[C@@H](CCCNC(=N)N)C(=O)N[C@@H](C)C(=O)NCC(=O)N1CCC[C@H]1C(=O)N[C@@H](CO)C(=O)N[C@@H](CO)C(=O)NCC(=O)N[C@@H](C)C(=O)N1CCC[C@H]1C(=O)N1CCC[C@H]1C(=O)N1CCC[C@H]1C(=O)N[C@@H](CO)C(N)=O)[C@@H](C)CC)C(=O)O) [exendin-4 peptide analogue SEQ ID NO: 20] | 8.2 pM | 18200 pM | 16.3 pM
3 | Y[Aib]QGTFTSDLSIQK(Palmitoyl)EQRAA[Aib]EFIEWLKNTGPSSGAPPPS-NH2 (N-terminus assumed; SMILES CCCCCCCCCCCCCCCC(=O)NCCCC[C@H](NC(=O)[C@H](CCC(N)=O)NC(=O)[C@@H](NC(=O)[C@H](CO)NC(=O)[C@H](CC(C)C)NC(=O)[C@H](CC(=O)O)NC(=O)[C@H](CO)NC(=O)[C@@H](NC(=O)[C@H](Cc1ccccc1)NC(=O)[C@@H](NC(=O)CNC(=O)[C@H](CCC(N)=O)NC(=O)C(C)(C)NC(=O)[C@@H](N)Cc1ccc(O)cc1)[C@@H](C)O)[C@@H](C)O)[C@@H](C)CC)C(=O)N[C@@H](CCC(=O)O)C(=O)N[C@@H](CCC(N)=O)C(=O)N[C@@H](CCCNC(=N)N)C(=O)N[C@@H](C)C(=O)N[C@@H](C)C(=O)NC(C)(C)C(=O)N[C@@H](CCC(=O)O)C(=O)N[C@@H](Cc1ccccc1)C(=O)N[C@H](C(=O)N[C@@H](CCC(=O)O)C(=O)N[C@@H](Cc1c[nH]c2ccccc12)C(=O)N[C@@H](CC(C)C)C(=O)N[C@@H](CCCCN)C(=O)N[C@@H](CC(N)=O)C(=O)N[C@H](C(=O)NCC(=O)N1CCC[C@H]1C(=O)N[C@@H](CO)C(=O)N[C@@H](CO)C(=O)NCC(=O)N[C@@H](C)C(=O)N1CCC[C@H]1C(=O)N1CCC[C@H]1C(=O)N1CCC[C@H]1C(=O)N[C@@H](CO)C(N)=O)[C@@H](C)O)[C@@H](C)CC) [exendin-4 peptide analogue SEQ ID NO: 21] | 37 pM | 674 pM | 189 pM
4 | Y[Aib]QGTFTSDLSIQK([γGlu-Palmitoyl])EKRA[Aib][Aib]EFIEWLKNTGPSSGAPPPS-NH2 (N-terminus assumed; SMILES CCCCCCCCCCCCCCCC(=O)N[C@@H](CCC(=O)NCCCC[C@H](NC(=O)[C@H](CCC(N)=O)NC(=O)[C@@H](NC(=O)[C@H](CO)NC(=O)[C@H](CC(C)C)NC(=O)[C@H](CC(=O)O)NC(=O)[C@H](CO)NC(=O)[C@@H](NC(=O)[C@H](Cc1ccccc1)NC(=O)[C@@H](NC(=O)CNC(=O)[C@H](CCC(N)=O)NC(=O)C(C)(C)NC(=O)[C@@H](N)Cc1ccc(O)cc1)[C@@H](C)O)[C@@H](C)O)[C@@H](C)CC)C(=O)N[C@@H](CCC(=O)O)C(=O)N[C@@H](CCCCN)C(=O)N[C@@H](CCCNC(=N)N)C(=O)N[C@@H](C)C(=O)NC(C)(C)C(=O)NC(C)(C)C(=O)N[C@@H](CCC(=O)O)C(=O)N[C@@H](Cc1ccccc1)C(=O)N[C@H](C(=O)N[C@@H](CCC(=O)O)C(=O)N[C@@H](Cc1c[nH]c2ccccc12)C(=O)N[C@@H](CC(C)C)C(=O)N[C@@H](CCCCN)C(=O)N[C@@H](CC(N)=O)C(=O)N[C@H](C(=O)NCC(=O)N1CCC[C@H]1C(=O)N[C@@H](CO)C(=O)N[C@@H](CO)C(=O)NCC(=O)N[C@@H](C)C(=O)N1CCC[C@H]1C(=O)N1CCC[C@H]1C(=O)N1CCC[C@H]1C(=O)N[C@@H](CO)C(N)=O)[C@@H](C)O)[C@@H](C)CC)C(=O)O) [exendin-4 peptide analogue SEQ ID NO: 22] | 8.5 pM | 2220 pM | 102 pM
5 | Y[Aib]QGTFTSDLSIQK([γGlu-Palmitoyl])EKRAA[Aib]YFIEWLKNTGPSSGAPPPS-NH2 (N-terminus assumed; SMILES CCCCCCCCCCCCCCCC(=O)N[C@@H](CCC(=O)NCCCC[C@H](NC(=O)[C@H](CCC(N)=O)NC(=O)[C@@H](NC(=O)[C@H](CO)NC(=O)[C@H](CC(C)C)NC(=O)[C@H](CC(=O)O)NC(=O)[C@H](CO)NC(=O)[C@@H](NC(=O)[C@H](Cc1ccccc1)NC(=O)[C@@H](NC(=O)CNC(=O)[C@H](CCC(N)=O)NC(=O)C(C)(C)NC(=O)[C@@H](N)Cc1ccc(O)cc1)[C@@H](C)O)[C@@H](C)O)[C@@H](C)CC)C(=O)N[C@@H](CCC(=O)O)C(=O)N[C@@H](CCCCN)C(=O)N[C@@H](CCCNC(=N)N)C(=O)N[C@@H](C)C(=O)N[C@@H](C)C(=O)NC(C)(C)C(=O)N[C@@H](Cc1ccc(O)cc1)C(=O)N[C@@H](Cc1ccccc1)C(=O)N[C@H](C(=O)N[C@@H](CCC(=O)O)C(=O)N[C@@H](Cc1c[nH]c2ccccc12)C(=O)N[C@@H](CC(C)C)C(=O)N[C@@H](CCCCN)C(=O)N[C@@H](CC(N)=O)C(=O)N[C@H](C(=O)NCC(=O)N1CCC[C@H]1C(=O)N[C@@H](CO)C(=O)N[C@@H](CO)C(=O)NCC(=O)N[C@@H](C)C(=O)N1CCC[C@H]1C(=O)N1CCC[C@H]1C(=O)N1CCC[C@H]1C(=O)N[C@@H](CO)C(N)=O)[C@@H](C)O)[C@@H](C)CC)C(=O)O) [exendin-4 peptide analogue SEQ ID NO: 23] | 9.2 pM | 312 pM | 134 pM
